From paper doi:10.1101/2024.12.20.629688

Assays:
[1] = target: myristoylated human Arf1, GTP-bound form, anchored on membrane (nanodiscs or LUVs) (human) (UniProt P84077)
[2] = target: myristoylated human Arf1, GTP-bound form, anchored on membrane (nanodiscs or LUVs) (human) (UniProt P84077); test: not stated; binding of the K391A mutant, shown in Fig. SI5
[3] = target: myrArf1 with Glu54 mutated to Ala (human) (UniProt P84077)
[4] = target: myristoylated human Arf1, GTP-bound form, anchored on membrane (nanodiscs or LUVs) (human) (UniProt P84077); remark: listed apart in the source

Chain of myristoylated human Arf1, GTP-bound form, anchored on membrane (nanodiscs or LUVs) (human) (P84077 whole entry): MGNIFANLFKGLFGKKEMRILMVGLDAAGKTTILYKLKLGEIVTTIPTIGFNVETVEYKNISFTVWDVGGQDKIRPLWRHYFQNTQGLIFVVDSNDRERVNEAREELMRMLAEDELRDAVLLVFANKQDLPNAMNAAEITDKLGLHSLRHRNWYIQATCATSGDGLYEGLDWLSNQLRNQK
Chain of PZA with Lys391 mutated to Ala (Q9QWY8 other isoform, or with tags, fused parts or gaps, change not shown): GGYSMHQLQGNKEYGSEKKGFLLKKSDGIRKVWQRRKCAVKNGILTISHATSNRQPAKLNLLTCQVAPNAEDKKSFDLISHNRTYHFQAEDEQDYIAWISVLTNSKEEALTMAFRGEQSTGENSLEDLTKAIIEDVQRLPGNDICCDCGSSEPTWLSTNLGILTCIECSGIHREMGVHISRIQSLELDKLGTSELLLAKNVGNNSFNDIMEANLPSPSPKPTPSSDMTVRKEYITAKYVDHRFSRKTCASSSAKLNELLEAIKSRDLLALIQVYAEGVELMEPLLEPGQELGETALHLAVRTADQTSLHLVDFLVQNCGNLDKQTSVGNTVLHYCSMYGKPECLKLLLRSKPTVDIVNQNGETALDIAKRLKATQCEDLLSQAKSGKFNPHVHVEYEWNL
Chain of wt PZA, [325–724]ASAP1 (PH, Arf GAP and ankyrin repeat domains) (Q9QWY8 325-724): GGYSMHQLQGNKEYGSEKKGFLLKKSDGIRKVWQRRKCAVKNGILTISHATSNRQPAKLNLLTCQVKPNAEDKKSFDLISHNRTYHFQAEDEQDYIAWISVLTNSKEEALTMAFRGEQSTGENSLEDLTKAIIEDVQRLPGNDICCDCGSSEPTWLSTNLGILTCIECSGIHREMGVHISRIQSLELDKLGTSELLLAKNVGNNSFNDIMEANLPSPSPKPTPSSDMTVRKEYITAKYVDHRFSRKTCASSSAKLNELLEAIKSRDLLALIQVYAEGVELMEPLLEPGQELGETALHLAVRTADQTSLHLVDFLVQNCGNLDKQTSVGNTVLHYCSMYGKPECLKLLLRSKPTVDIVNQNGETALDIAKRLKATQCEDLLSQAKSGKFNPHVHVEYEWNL
Chain of PZA with Phe438 mutated to Ala (Q9QWY8 other isoform, or with tags, fused parts or gaps, change not shown): as the sequence (Q9QWY8 325-724) above, with F114A counted along it
Chain of ΔN14 PZA (PZA without residues 325–338) (Q9QWY8 339-724, stated change not applied): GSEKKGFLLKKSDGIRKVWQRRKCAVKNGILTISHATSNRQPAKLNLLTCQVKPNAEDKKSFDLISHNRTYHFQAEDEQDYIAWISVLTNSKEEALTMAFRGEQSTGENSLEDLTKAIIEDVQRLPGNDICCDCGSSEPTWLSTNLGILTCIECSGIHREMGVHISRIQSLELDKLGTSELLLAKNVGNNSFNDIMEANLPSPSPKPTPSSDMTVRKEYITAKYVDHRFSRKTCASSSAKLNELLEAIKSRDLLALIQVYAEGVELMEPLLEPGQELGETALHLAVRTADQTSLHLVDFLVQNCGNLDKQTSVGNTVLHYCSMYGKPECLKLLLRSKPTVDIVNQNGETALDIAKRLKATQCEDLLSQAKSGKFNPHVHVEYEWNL
Chain of myrArf1 with Glu54 mutated to Ala (human) (P84077 other isoform, or with tags, fused parts or gaps, change not shown): as the sequence (P84077 whole entry) above, with E54A counted along it
Chain of PZA with His405 mutated to Glu (Q9QWY8 other isoform, or with tags, fused parts or gaps, change not shown): as the sequence (Q9QWY8 325-724) above, with H81E counted along it

Substance	ArfGAP activity (C50: concentration of PZA for 50% GTP hydrolysis in 3 min), fold reduction against wild type [1] [fold]	further results
PZA with Lys391 mutated to Ala (from UniProt Q9QWY8 325-724) (domain or fragment)	100	
PZA with Phe438 mutated to Ala (from UniProt Q9QWY8 325-724) (domain or fragment)	15	
PZA with His405 mutated to Glu (from UniProt Q9QWY8 325-724) (domain or fragment)	5	
ASAP1 PH domain with Lys391 mutated to Ala (from UniProt Q9QWY8 325-451) (domain or fragment)		fold reduction of binding against wild type [2]: 2 fold
wt PZA, [325–724]ASAP1 (PH, Arf GAP and ankyrin repeat domains) (from UniProt Q9QWY8 325-724) (domain or fragment)		ArfGAP activity (C50: concentration of PZA for 50% GTP hydrolysis in 3 min), fold reduction against wild type [3]: 70 fold
ΔN14 PZA (PZA without residues 325–338) (from UniProt Q9QWY8 339-724) (domain or fragment)		GAP activity relative to wt PZA (fold of wt PZA) [4]: < 0.01
